# According to patent US20260022352A1, “COMPOSITIONS AND METHODS FOR PURIFYING […]” (North Carolina State University, priority 2023, published 2026):
# Biological target: VSV-G-pseudo-typed lentiviral vector particles (vesicular stomatitis virus) (UniProt P03522)
# Chain of UniProt P03522 (P03522 17-511): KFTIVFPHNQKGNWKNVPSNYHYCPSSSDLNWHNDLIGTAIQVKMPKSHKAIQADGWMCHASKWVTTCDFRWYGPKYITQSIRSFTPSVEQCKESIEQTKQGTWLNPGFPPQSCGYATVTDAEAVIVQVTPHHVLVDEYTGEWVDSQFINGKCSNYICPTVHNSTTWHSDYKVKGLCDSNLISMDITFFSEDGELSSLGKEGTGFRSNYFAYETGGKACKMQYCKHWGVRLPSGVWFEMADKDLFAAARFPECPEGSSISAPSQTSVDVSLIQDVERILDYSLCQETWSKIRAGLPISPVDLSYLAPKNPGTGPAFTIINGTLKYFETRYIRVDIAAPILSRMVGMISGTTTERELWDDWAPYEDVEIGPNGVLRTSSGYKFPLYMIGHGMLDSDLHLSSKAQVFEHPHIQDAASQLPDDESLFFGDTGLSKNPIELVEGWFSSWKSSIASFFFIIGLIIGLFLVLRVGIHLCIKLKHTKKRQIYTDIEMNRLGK
Sequence,capacity [TU/mL],LVV adsorbed [TU/mL]
FEKISAAE (peptide),5e+08,–
GKEAAFAA (peptide),–,> 1e+09
